In paper doi:10.1101/764241v3:

Substrate: O=c1ccn([C@@H]2O[C@H](COP(=O)(O)OP(=O)(O)O[C@H]3O[C@H](CO)[C@H](O)[C@H](O)[C@H]3O)[C@@H](O)[C@H]2O)c(=O)[nH]1
Assay: [3H]Gal transfer, Sep-Pak C18 scintillation counting
Assay type: biochemical, Globisporangium ultimum
Conditions: donor, maltose-pNP acceptor, 2 mM MnCl2, pH 7.0, 37°C

B1: PuGat1 (Globisporangium ultimum DAOM BR144) (protein)
chain: MTVGTRRAAYATLITSDAYVMGVEALVYSLFKARVAFPLVVLHSSQVTQPTVAKLTRFCAPFQSSTWRISFRSVPDIGIPDEVTDRSTVHVPGWVNSGYTKLHIFAMDDFEQIVYIDADAIVLQNVDELFDRSTSFAAAPDVFPPDRFNAGVLVIRPNKQLFADLLAKAKELKSYDGGDTGFLNAFFPKWFESDAASRLPFGYNAQRTMYWLVNGKNPGYWNAVQPLKILHYSSNPKPWEDPSRKGDLEILWWQMYTESRCMSFLG
  Km: 15 µM
